These results are taken from article PMC5679017 (Journal of medicinal chemistry, 2016).

Square brackets hold non-standard residues; d marks the D form. Ends that are not written are not given here.

Common to all, as to assay: radioligand binding
Experiment [1] deals with mouse melanocortin-3 receptor, Flag-tagged (mouse, UniProt P33033 1-323).
Experiment [2] addresses mouse melanocortin-4 receptor (mouse, UniProt P56450 1-332).
Experiment [3] has as its target mouse melanocortin-1 receptor (mouse, UniProt Q01727 1-315).

Sequence of mouse melanocortin-4 receptor (P56450 whole entry): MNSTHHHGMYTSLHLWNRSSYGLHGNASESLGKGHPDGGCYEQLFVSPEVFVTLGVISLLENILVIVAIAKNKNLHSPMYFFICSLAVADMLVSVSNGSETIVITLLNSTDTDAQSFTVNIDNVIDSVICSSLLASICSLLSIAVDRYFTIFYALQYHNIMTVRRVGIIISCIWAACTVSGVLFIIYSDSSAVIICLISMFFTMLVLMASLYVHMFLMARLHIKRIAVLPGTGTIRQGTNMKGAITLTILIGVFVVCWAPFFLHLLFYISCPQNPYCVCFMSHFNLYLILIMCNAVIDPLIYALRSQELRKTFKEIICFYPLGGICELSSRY
Sequence of mouse melanocortin-1 receptor (Q01727 whole entry): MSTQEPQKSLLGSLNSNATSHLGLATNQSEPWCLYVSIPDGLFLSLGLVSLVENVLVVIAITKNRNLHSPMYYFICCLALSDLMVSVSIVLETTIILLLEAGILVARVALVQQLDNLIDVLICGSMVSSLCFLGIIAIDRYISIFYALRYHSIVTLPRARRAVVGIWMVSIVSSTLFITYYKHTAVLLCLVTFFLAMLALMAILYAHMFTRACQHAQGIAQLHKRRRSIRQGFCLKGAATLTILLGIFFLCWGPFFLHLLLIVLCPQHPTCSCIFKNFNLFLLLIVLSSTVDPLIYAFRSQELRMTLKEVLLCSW
Sequence of mouse melanocortin-3 receptor, Flag-tagged (P33033 whole entry): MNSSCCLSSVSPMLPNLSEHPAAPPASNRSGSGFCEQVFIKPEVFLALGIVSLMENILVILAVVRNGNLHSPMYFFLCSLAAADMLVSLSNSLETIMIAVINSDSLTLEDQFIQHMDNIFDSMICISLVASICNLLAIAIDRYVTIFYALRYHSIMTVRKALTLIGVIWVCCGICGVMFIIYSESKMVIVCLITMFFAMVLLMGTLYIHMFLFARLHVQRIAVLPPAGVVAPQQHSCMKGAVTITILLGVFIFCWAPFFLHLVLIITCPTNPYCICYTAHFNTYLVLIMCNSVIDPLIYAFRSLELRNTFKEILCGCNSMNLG

B1: compound 5 (CJL-1-41): His-DPhe-Arg-Trp-NH2 scaffold with (Pro-Gly)6 added to the N-terminus (peptide)
peptide: PGPGPGPGPGPGH[dF]RW-NH2
modifications: N-terminus assumed
SMILES: N=C(N)NCCC[C@H](NC(=O)[C@@H](Cc1ccccc1)NC(=O)[C@H](Cc1c[nH]cn1)NC(=O)CNC(=O)[C@@H]1CCCN1C(=O)CNC(=O)[C@@H]1CCCN1C(=O)CNC(=O)[C@@H]1CCCN1C(=O)CNC(=O)[C@@H]1CCCN1C(=O)CNC(=O)[C@@H]1CCCN1C(=O)CNC(=O)[C@@H]1CCCN1)C(=O)N[C@@H](Cc1c[nH]c2ccccc12)C(N)=O
Broadly, the IC50 is the point on the concentration scale where inhibition reaches its midpoint. A higher IC50 goes with a need for much substance. With B1, the IC50 came out at 8430 nM in experiment [1] and 258 nM in experiment [2].
As to H[dF]RWPGPGPGPGPGPGH[dF]RW-NH2 [compound 6 (CJL-1-31): homobivalent ligand, two His-DPhe-Arg-Trp scaffolds joined by (Pro-Gly)6], the values for the IC50 in experiment [1], in experiment [2] and in experiment [3] were 3250 nM, 33 nM and 27.5 nM, respectively.

B2: compound 4 (CJL-5-35-1): Ac-His-DPhe-Arg-Trp-NH2 scaffold with (Pro-Gly)6 added to the C-terminus (peptide)
peptide: Ac-H[dF]RWPGPGPGPGPGPG-NH2
SMILES: CC(=O)N[C@@H](Cc1c[nH]cn1)C(=O)N[C@H](Cc1ccccc1)C(=O)N[C@@H](CCCNC(=N)N)C(=O)N[C@@H](Cc1c[nH]c2ccccc12)C(=O)N1CCC[C@H]1C(=O)NCC(=O)N1CCC[C@H]1C(=O)NCC(=O)N1CCC[C@H]1C(=O)NCC(=O)N1CCC[C@H]1C(=O)NCC(=O)N1CCC[C@H]1C(=O)NCC(=O)N1CCC[C@H]1C(=O)NCC(N)=O
For B2, the IC50 in experiment [2] came to 841 nM; in experiment [3], 225 nM.
